The target in one series is T1, TIA1 RRM2_3 (human, UniProt P31483-2 93-274).
T1 sequence: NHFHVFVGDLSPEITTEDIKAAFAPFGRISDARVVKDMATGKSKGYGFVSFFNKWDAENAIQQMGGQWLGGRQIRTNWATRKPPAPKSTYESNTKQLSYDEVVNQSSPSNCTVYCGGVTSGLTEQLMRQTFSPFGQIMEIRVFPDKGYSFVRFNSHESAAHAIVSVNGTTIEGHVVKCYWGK
The series can be described thus: EMSA; EMSA: 10 mM sodium phosphate pH 6.5, 50 mM NaCl, 1 mM DTT, 1 U/ul SUPERase-In, room temperature 20 min, native 1.2% agarose; RNA annealed in 10 mM Tris-HCl pH 7.5, 100 mM KCl. The note with it: protein: recombinant, tags: His6-SUMO removed by SUMO protease, label: 5'-Cy3. A general note: Mobility shift assays separate free from complexed probe on a gel.

The target of a further series is T2, TIA1 RRM1-3 (human, UniProt P31483-2 1-274).
T2 sequence: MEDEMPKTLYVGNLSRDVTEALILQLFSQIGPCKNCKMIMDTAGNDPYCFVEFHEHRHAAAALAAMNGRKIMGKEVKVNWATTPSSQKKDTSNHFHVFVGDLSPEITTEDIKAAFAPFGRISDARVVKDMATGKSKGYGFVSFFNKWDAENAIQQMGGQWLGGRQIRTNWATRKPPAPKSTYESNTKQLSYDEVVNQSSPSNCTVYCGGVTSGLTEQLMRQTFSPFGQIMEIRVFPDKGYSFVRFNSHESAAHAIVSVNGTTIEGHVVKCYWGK
The description is as above. The note with it: protein: recombinant; tags: His6-SUMO, removed (same protocol as RRM2_3); label: 5'-Cy3; single strand.

The Kd is the equilibrium constant for the complex coming apart.

With UUUCGAUCUCUUGUAGAUCUGUUCUCUAAACGAACUUUAAAAUCU (structured_RNA) [SL2+SL3], in the series with TIA1 RRM2_3 (two hairpins), the equilibrium dissociation constant (Kd) is 430 ± 50 nM.

As for UCACUCUUGAACGAACUUAAA (structured_RNA) [RousettusHKU9 SL3], the equilibrium dissociation constant (Kd) with TIA1 RRM2_3 was determined as 410 ± 20 nM.

With UUUUUUUUUUU (ssRNA) [U11], the binding result with TIA1 RRM2_3 (single strand) and in the series with TIA1 RRM1-3 was “binds” each time.

Consider UUUGAUUUUAACGAACUUAAA (structured_RNA) [MERS SL3], for which the Kd in the series with TIA1 RRM2_3 worked out at 300 ± 20 nM.

On to UUUCGAUCUCUUGUAGAUC (structured_RNA) [SL2], for which the Kd in the series with TIA1 RRM2_3 (hairpin, 5-nt loop) worked out at 2470 ± 370 nM.

As to UGUUCUCUAAACGAACUUUAA (structured_RNA) [SL3], the Kd in the series with TIA1 RRM2_3 was found to be 780 ± 90 nM.

For the origin of these results see article PMC10287707.
